From patent US20200148768A1 (STCUBE, published 2020)
Substitutions are numbered along the chain they refer to. One block for each binder: values may come before it.

Columns and labels:
human BTN1A1-ECD-Fc [1] = target: T1, human BTN1A1-ECD-Fc (human, N-glycosylated (PNGase F sensitive)); assay: direct ELISA, coated BTN1A1-Fc, native Ag
T1 construct: also called BTN1A1-Fc; hBTN1A1-Fc
Description: In order to exclude the possibility that the observed binding was due to human Fc binding, ELISA was performed using human BTN1A1-Fc and human IgG1 control. The antigens BTN1A1-Fc and human IgG1 were coated onto ELISA plate. Antibodies were added to each well and binding was for each antibody determined by standard direct ELISA against the antigens. Human IgG1 binding antibodies were excluded from the candidates.

human BTN1A1-ECD-Fc [2] = target: T1, human BTN1A1-ECD-Fc; assay: Octet BLI, anti-mouse Fc capture
Description: Using a biosensor coated with anti-mouse Fc capture antibody, KD was determined by Kon and Koff. Antibodies with higher affinity (nanomolar range) were selected. Epitope binning is also used to categorize the epitope binding characteristics of panels of antibodies against a single target. This epitope binning experiment was designed to determine whether two different antibodies bind to the same epitope. If two antibodies bind to the same epitope of the antigen, then the binding of the first antibody will preclude the binding if the second antibody. If each antibody in a tested pair binds to a completely independent epitope, then binding of the first antibody will have no effect on the binding of the second. Through repeated testing, the antibodies are grouped according to epitope binding specificity. This experiment was performed using the Octet Red96 System (Pall ForteBio) with Bio-Layer Interferometry (BLI) to detect and analyze the interaction of biological molecules. Antigen was bound to the disposable sensors, then additional binding of antibody to the antigen was measured by change in delay of the reflection of the light passing through the sensor. A longer delay is indicative of more mass bound to the sensor, and this value is used to determine the degree of protein-antibody interaction.

[3] = target: T2, human BTN1A1 wild type, expressed on cells (human, UniProt Q13410 27-526, glycosylated at N55 and N215 (extracellular)); assay: FACS, HEK293T overexpressing BTN1A1, FITC secondary
T2 construct: also as whole-cell lysate in western blots; also called BTN1A1 WT
T2 sequence: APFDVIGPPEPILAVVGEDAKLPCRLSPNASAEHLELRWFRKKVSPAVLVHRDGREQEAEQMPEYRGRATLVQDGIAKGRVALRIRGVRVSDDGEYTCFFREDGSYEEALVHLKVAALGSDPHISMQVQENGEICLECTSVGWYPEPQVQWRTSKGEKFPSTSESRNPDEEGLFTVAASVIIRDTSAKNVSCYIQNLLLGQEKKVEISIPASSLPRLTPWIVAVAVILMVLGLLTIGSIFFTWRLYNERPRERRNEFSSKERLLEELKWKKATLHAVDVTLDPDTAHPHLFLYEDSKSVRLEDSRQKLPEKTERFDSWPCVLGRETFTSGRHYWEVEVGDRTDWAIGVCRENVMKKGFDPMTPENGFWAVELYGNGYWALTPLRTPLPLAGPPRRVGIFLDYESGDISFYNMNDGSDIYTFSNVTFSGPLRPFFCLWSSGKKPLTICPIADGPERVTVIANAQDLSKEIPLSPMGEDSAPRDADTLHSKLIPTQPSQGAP
Description: To identify anti-BTN1A1-Fc MAbs that were specific for and which preferentially bound human BTN1A1-Fc antigen, different types of assays were performed. In a screening assay to detect preferential binding of MAbs to BTN1A1, antibody binding was determined based on the measurement of fluorescence intensity through FACS analysis (using cell membrane bound proteins). By way of example, the assay was performed using the HEK293T human embryonic kidney cell line. Illustratively, HEK293T cells overexpressing BTN1A1 were incubated with anti-BTN1A1 antibodies existing in hybridoma culture supernatant. After washing, secondary antibodies conjugated with FITC were added as detection agent. Fluorescence intensity (measured fluorescence intensity, MFI) was measured via FACS I flow cytometry analysis to assess the relative binding of the anti-BTN1A1 antibodies to membrane bound BTN1A1 WT on cells. […] Based on the binding analysis, sixty seven candidate MAb-producing hybridomas were selected, grown in ADCF medium, and their supernatant containing monoclonal antibody was concentrated and purified.

human BTN1A1-ECD-Fc [4] = target: T1, human BTN1A1-ECD-Fc; assay: direct ELISA, coated BTN1A1-Fc, denatured Ag
mouse BTN1A1-ECD-Fc = target: T3, mouse BTN1A1-ECD-Fc (mouse; human, UniProt Q62556 27-247); assay: SPR (Biacore X-100), antibody captured on chip, mouse BTN1A1-ECD-Fc 2-64 nM
T3 construct: also called human IgG1-Fc-tagged mouse BTN1A1-ECD (dimer); mBTN1A1-Fc
T3 chain: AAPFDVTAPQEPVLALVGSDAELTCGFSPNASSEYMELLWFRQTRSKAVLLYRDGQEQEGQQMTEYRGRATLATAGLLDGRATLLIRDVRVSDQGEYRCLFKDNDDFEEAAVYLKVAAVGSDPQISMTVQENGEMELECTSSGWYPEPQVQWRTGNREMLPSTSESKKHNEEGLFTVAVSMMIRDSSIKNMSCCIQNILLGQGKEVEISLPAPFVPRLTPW
Description: The binding affinity between BTN1A1 and monoclonal anti-BTN1A1 antibodies STC1011, STC1012, and STC1029 was measured by Surface Plasmon Resonance (BIAcore™). Sensorgrams and saturation curves of antibody titrations of with human IgG1-Fc-tagged mouse BTN1A1-ECD (dimer) were recorded.
An Protein capture chip (BIAcore™) was coated with STC1011, STC1012, STC1029, or a control IgG1 antibody. No interaction between the IgG1 control and mouse BTN1A1-His was observed. Mouse BTN1A1-ECD-Fc was injected into the microfluidic channel on a Biacore™ X-100 instrument. KD values were obtained using fitting tools of the BIAevaluation software (BIAcore). FIGS. 29A-C provide sensograms showing real-time binding of dimeric BTN1A1-ECD-Fc (2-64 nM with 2-fold dilution) to immobilized STC1011, STC1012, and STC1029.

human BTN1A1-ECD-His6 = target: T4, human BTN1A1-ECD-His6 (human, UniProt Q13410 27-242, N-glycosylated (PNGase F sensitive)); assay: western blot after SDS-PAGE, native lanes (no DTT, no boiling) and reduced lanes (DTT, boiling)
T4 construct: also called BTN1A1-His; hBTN1A1-His
T4 sequence: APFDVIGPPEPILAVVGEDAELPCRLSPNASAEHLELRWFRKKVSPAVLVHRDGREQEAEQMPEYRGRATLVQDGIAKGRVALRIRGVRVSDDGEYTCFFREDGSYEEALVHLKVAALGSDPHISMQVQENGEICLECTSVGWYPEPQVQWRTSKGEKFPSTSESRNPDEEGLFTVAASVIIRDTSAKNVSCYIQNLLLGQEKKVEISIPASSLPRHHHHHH
Source text: FIG. 34—Dimer-specific binding of BTN1A1 antibody. FIG. 34 first panel from the left is an image of Coomassie blue stained SDS-PAGE gel, showing locations of monomer and dimer forms of the BTN1A1 protein in both native and reduced conditions along with a size standard. The second through fifth panels show western blots visualizing the monomer and dimer forms of the BTN1A1 protein in both native and reduced conditions using STC810, STC2602, STC2714 and STC 2781 antibody, respectively.
To determine the conformational specificity, Western blot analysis was performed using both dimer form of BTN1A1 (Fc fusion protein extracellular domain of BTN1A1) and monomer form of BTN1A1 (His-tagged protein of extracellular domain of BTN1A1). Proteins were treated with DTT (a reducing agent) and boiling or without reducing and denaturing by boiling. After running the proteins on SDS-PAGE, Western blot was performed by a standard protocol (FIG. 34). In a native condition (without a reducing agent and boiling), STC2714 recognized only Fc fusion protein, a dimerized form of BTN1A1 ECD, but not His-tagged protein, a monomer form of BTN1A1 ECD.

human BTN1A1-ECD-Fc [5] = target: T1, human BTN1A1-ECD-Fc; assay: SPR (Biacore), antibody on mIgG capture chip, BTN1A1-ECD-Fc 2-64 nM
Description: (§1) An mIgG capture chip (BIAcore™) was coated with antibody with 600 response units (RU) and BTN1A1-ECD was injected into the microfluidic channel. KD values were obtained using fitting tools of the BIAevaluation software (BIAcore). FIGS. 22A-F provide sensograms showing real-time binding of dimeric BTN1A1-ECD-Fc (2-64 nM with 2-fold dilution; FIGS. 22A, C, and E) or of monomeric BTN1A1-ECD-His (2-64 nM with 2-fold dilution; FIGS. 22B, D, and F) to STC703, STC810, or STC820 immobilized on an mIgG capture CMS chip. Flow cells without any immobilized protein were used as the controls for non-specific binding and control cell signals were subtracted from test cell signals to produce the sensograms shown in FIGS. 22A-F.
(§2) The KD values for BTN1A1-ECD-Fc or BTN1A1-ECD-His binding to STC703, STC810, and STC820 as measured by Biacore assays are provided in Table 17 below.

[6] = target: T2, human BTN1A1 wild type, expressed on …; assay: FACS, 293T BTN1A1 WT against 2NQ
Description: The glyco-specificity of monoclonal anti-BTN1A1 antibodies was characterized by dot blot analysis. Each anti-BTN1A1 mAb (0.5 μg/well loaded) was tested for binding to glycosylated BTN1A1 (PNGaseF “−”) or deglycosylated BTN1A1 (PNGaseF “+”). Non-specific antibody controls (“IgG,” 0.25 μg/well loaded) was also included in the assay. As shown in FIGS. 19A-19B, both glycosylated BTN1A1 protein and non-glycosylated BTN1A1 (BTN1A1 protein treated with PNGase F) were coated on the solid phase and tested for mAb and antigen binding affinity. […] The glyco-specificity of monoclonal anti-BTN1A1 antibodies was also characterized by FACS analysis. […] After further washing, fluorescence intensity (MFI) was measured to assess relative binding of antibodies to membrane-bound glycosylated or unglycosylated BTN1A1. […] See, e.g., FIGS. 21A-C and Table 16.

human BTN1A1-ECD-Fc [7] = target: T1, human BTN1A1-ECD-Fc; assay: SPR (Biacore)
Description: as §1, §2

B2: STC1012 (antibody, V domains shown)
VH: EVMLVESGGALVKPGGSLKLSCAASGFTFSNYVMSWVRQTPEKRLEWVATISSGGSYTNYPDSVKGRFIISRDNARNTLYLQMSSLRSEDTAIYYCVREGDGFYVFDYWGLGTTLTVSS
VL: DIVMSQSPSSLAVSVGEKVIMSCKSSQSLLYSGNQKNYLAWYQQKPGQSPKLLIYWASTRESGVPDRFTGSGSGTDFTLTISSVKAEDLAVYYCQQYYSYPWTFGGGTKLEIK
notes: kappa; pHrodo-labeled in the internalization assay; also called mouse monoclonal anti-mouse BTN1A1 antibody STC1012
Kd (mouse BTN1A1-ECD-Fc): 4.1 nM
koff (mouse BTN1A1-ECD-Fc): 0.000599 s⁻¹
kon (mouse BTN1A1-ECD-Fc): 146000 M⁻¹ s⁻¹

B6: STC810 (antibody, V domains shown)
VH: EVQLQQSGPELVKPGASVKISCKASGYTFTHYNMDWVKQSHGKSLEWIGYIYPSNGGTGYNQKFKSRATLTVDKSSSTAYMELHSLTSEDSAVYYCARGAYHYGSSYAYWYFDVWGAGTTVTVSS
VL: DIQMTQTTSSLSASLGDRVTISCSASQDISNYLNWYQQKPDETVKLLISYTSSLHSGVPSRFSGSGSGTDYSLTISNLAPEDIATYYCQQSSKLPFTFGSGTELEIKR
notes: mouse monoclonal; kappa; also called mouse monoclonal anti-human BTN1A1 antibody STC810
Kd (human BTN1A1-ECD-Fc [5]): 0.92 nM
fold MFI on glycosylated over unglycosylated BTN1A1 [6]: ≥ 2 fold
fold higher affinity than to monomeric BTN1A1-ECD-His (human BTN1A1-ECD-Fc [7]): > 100 fold

More lines, now with the values ahead:

ELISA (Native Ag) (human BTN1A1-ECD-Fc [1]): 1.8
Kd (human BTN1A1-ECD-Fc [2]): 0.436 nM
FACS (MFI) [3]: 2340
ELISA (Denatured Ag) (human BTN1A1-ECD-Fc [4]): 1.44
B1: STC2778 (antibody, V domains shown)
VH: QIQLVQSGPELKKPGETVKISCKASGYSFTNYGMNWVKQAPGKGLKWMGWINIYTGETTYGDDFKGRFAFSLETSASTAYLQINNLRSEDTATYFCVRGGTMIMYWGQGTTLTVSS
VL: DIVLTQSPATLSVTPGDSVSLSCRASQSISNNLHWHQQKSHESPRLLIKYASQSMSGIPSRFSGSGSGTDFTLSINSVETEDFGMYFCQQSDSWPLTFGAGTKLELK

ELISA (Native Ag) (human BTN1A1-ECD-Fc [1]): 1.39
Kd (human BTN1A1-ECD-Fc [2]): 2.35 nM
FACS (MFI) [3]: 69.5
binding result (human BTN1A1-ECD-His6): no binding
ELISA (Denatured Ag) (human BTN1A1-ECD-Fc [4]): 0.128
B3: STC2602 (antibody, V domains shown)
VH: EVQLQQSGPELVKPGASVKISCKASGFSFIGYYIDWVKQSPGKSLEWIGYIYPSNGETSYHQKCKGKATLTVDKSSSTVNMQLNSLTSEDSAVYYCARYGNYDWFFDVWGAGTTVTVSS
VL: QIVLTQSPAIMSASPGEKVTITCSASSSVSYMHWFQQKPGTSPKFWIYSTSNLASGVPIRFSGSGSGTSYSLTISRMEAEDAATYYCQQRSSYPYTFGGGTKLEIK

ELISA (Native Ag) (human BTN1A1-ECD-Fc [1]): 0.956
Kd (human BTN1A1-ECD-Fc [2]): 0.0885 nM
FACS (MFI) [3]: 841
ELISA (Denatured Ag) (human BTN1A1-ECD-Fc [4]): 0.418
B4: STC2739 (antibody, V domains shown)
VH: QVQLKQSGPGLVQPSQSLSITCTVSGFSLTTHGVNWVRQSPGKGLEWLGVIWSGGSTDYNAAFISRLSISKDNSKSQVFFKMNSLQANDTAIYYCARPYYYGAMDYWGQGTSVTVSS
VL: B3 VL with A9S, M32I, F45L, I59A, S92I, Y95L, G99A, I105L

Kd (mouse BTN1A1-ECD-Fc): 1.69 nM
koff (mouse BTN1A1-ECD-Fc): 0.000427 s⁻¹
kon (mouse BTN1A1-ECD-Fc): 251000 M⁻¹ s⁻¹
B5: STC1029 (antibody, V domains shown)
VH: EVQLQQSGPELVKPGASVKISCKASGYSFTGYFMNWVKQSHGKSLEWIGRINPYNGDTFYNQKFKDKATLTVDTSSSTAHMELRSLTSEESAVYYCARWTTVINFDYWGQGTTLTVSS
VL: SIVMTQTPKFLLVSAGDRVTITCKASQSVSYDVVWYQQKPGQSPKLLMYYVSNRYTGVPDRFTGSGYGTDFTFTISTVQAEDLAVYFCQQDYSSPPTFGGGTKLEIK
notes: kappa; also called mouse monoclonal anti-mouse BTN1A1 Antibody STC1029
